In US20200247894A1 (Regeneron, published 2020):
Positions count from the first letter of the chain named. Blank lines part the entries; values can stand above or below the binder they belong to.

Tests used:
[1] = molecular target: T1, Macaca fascicularis IL2Rγ extracellular domain expressed with a C-terminal myc-myc-hexahistidine tag (Macaca fascicularis); assay: SPR Biacore 4000, mAb captured by anti-hFc, 37C, dissociation in PBS-T pH 7.4
T1 construct: also called mfIL-2Rg-MMH; mfIL-2RG-MMH
T1 chain: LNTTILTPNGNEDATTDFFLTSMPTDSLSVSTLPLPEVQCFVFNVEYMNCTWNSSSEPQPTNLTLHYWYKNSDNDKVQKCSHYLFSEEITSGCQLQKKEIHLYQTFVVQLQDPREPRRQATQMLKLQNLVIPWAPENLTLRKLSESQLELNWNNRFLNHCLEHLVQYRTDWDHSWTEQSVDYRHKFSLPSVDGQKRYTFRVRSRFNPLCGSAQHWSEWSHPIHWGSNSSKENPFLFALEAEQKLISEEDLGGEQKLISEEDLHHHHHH
Experimental: (§1) The dissociation rate constant (kd) for binding of IL-2Rγ reagents to purified anti-IL2Rγ monoclonal antibodies was determined using a real-time surface plasmon resonance based Biacore 4000 biosensor platform. […] The CM5 Biacore sensor surface derivatized by amine coupling with monoclonal mouse anti-human Fc antibody (GE, Catalog # BR-1008-39) was used to capture anti-IL2Rγ monoclonal antibodies expressed with human IgG4 Fc. All the IL2Rγ reagents were expressed with a C-terminal myc-myc-hexahistidine tag (subsequently referred to with a -MMH suffix). […] The dissociation of bound IL-2Rg-MMH was performed in PBS-T-pH7.4 or PBS-T-pH6.0 running buffers for 6 minutes.
(§2) Dissociation rate constants (kd) in two running buffers were determined by fitting the real-time binding sensorgrams to a 1:1 binding model using Scrubber 2.0c curve-fitting software. Values of dissociation rate for […] mAb binding to hIL-2RG-MMH and mfIL-2RG-MMH at 25° C. and 37° C. in PBS-T-pH7.4 and PBS-T-pH6.0 is shown in Table 2-1 through Table 2-8.

[2] = molecular target: T1, Macaca fascicularis IL2Rγ extracellular …; assay: SPR Biacore 4000, mAb captured by anti-hFc, 37C, dissociation in PBS-T pH 6.0
Experimental: as §1, §2

[3] = molecular target: T2, Human IL2Rγ extracellular domain expressed with a C-terminal myc-myc-hexahistidine tag (human); assay: SPR Biacore 4000, mAb captured by anti-hFc, HBS-ET, 37C
T2 construct: also called hIL-2Rg-MMH; hIL-2RG-MMH
T2 chain: T1 chain with A14T, T16A, S22T, R141H, S228T
Experimental: (§3) Equilibrium dissociation constants (KD values) for IL-2Rγ binding to purified anti-IL2Rγ monoclonal antibodies were determined using a Biacore 4000 instrument equipped with a real-time surface plasmon resonance biosensor. All binding studies were performed in 10 mM HEPES, 150 mM NaCl, 3 mM EDTA, and 0.05% v/v Surfactant Tween-20, pH 7.4 (HBS-ET) running buffer at 25° C. and 37° C. The Biacore sensor surface was first derivatized by amine coupling with a monoclonal mouse anti-human Fc antibody (GE, # BR-1008-39) to capture anti-IL2Rγ monoclonal antibodies.
(§4) The dissociation of monoclonal antibody bound IL2Rγ reagents were monitored for 8-10 minutes in HBS-ET running buffer. Kinetic association (kₐ) and dissociation (kd) rate constants were determined by fitting the real-time sensorgrams to a 1:1 binding model using Scrubber 2.0c curve fitting software. Binding dissociation equilibrium constants (KD) and dissociative half-lives (t_{1/2}) were calculated from the kinetic rate constants as: […]

[4] = molecular target: T1, Macaca fascicularis IL2Rγ extracellular …; assay: SPR Biacore 4000, mAb captured by anti-hFc, HBS-ET, 25C
Experimental: as §3, §4

[5] = molecular target: T2, Human IL2Rγ extracellular domain …; assay: as above
Experimental: as §3, §4

100 nM Ag Bound (RU) [1]: 185 RU
koff [1]: 0.000693 s⁻¹
t1/2 [1]: 17 min
100 nM Ag Bound (RU) [2]: 146 RU
koff [2]: 0.00344 s⁻¹
t1/2 [2]: 3.4 min
100 nM Ag Bound [3]: 44 RU
Kd [3]: 2.58 nM
koff [3]: 0.00105 s⁻¹
kon [3]: 407000 M⁻¹ s⁻¹
t1/2 [3]: 11 min
100 nM Ag Bound [4]: 76 RU
Kd [4]: 1.64 nM
koff [4]: 0.000386 s⁻¹
kon [4]: 235000 M⁻¹ s⁻¹
t1/2 [4]: 30 min
100 nM Ag Bound [5]: 79 RU
Kd [5]: 1.3 nM
koff [5]: 0.000386 s⁻¹
kon [5]: 297000 M⁻¹ s⁻¹
t1/2 [5]: 30 min
B1: H4H12922P2 (antibody, human IgG4 S228P, kappa, V domains shown)
VH: QVQLVESGGGVVKPGGSLRLSCAASGFTFSNSGIHWVRQAPGKGLEWVALISYAGSNKYYADSVKGRFTISRDNSKNTLSLQMNSLRAEDTAVYYCAKEVWTGTYDSFDMWGRGTMVTVSS
VL: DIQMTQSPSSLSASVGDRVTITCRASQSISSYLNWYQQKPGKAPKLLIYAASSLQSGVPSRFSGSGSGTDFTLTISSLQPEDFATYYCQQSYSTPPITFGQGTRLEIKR
notes: anti-IL2Rγ monoclonal antibody expressed with human IgG4 Fc; also called REGN7256

100 nM Ag Bound (RU) [1]: 177 RU
koff [1]: 0.000606 s⁻¹
t1/2 [1]: 19 min
100 nM Ag Bound (RU) [2]: 141 RU
koff [2]: 0.00208 s⁻¹
t1/2 [2]: 6 min
100 nM Ag Bound [3]: 77 RU
Kd [3]: 4.11 nM
koff [3]: 0.00151 s⁻¹
kon [3]: 367000 M⁻¹ s⁻¹
t1/2 [3]: 8 min
100 nM Ag Bound [4]: 81 RU
Kd [4]: 1.91 nM
koff [4]: 0.00036 s⁻¹
kon [4]: 189000 M⁻¹ s⁻¹
t1/2 [4]: 32 min
100 nM Ag Bound [5]: 91 RU
Kd [5]: 1.7 nM
koff [5]: 0.000384 s⁻¹
kon [5]: 226000 M⁻¹ s⁻¹
t1/2 [5]: 30 min
B2: H4H12863P (antibody, human IgG4 S228P, kappa, V domains shown)
VH: QVQLVESGGGVVQPGRSLRLSCTASGFTFRSYDMYWVRQAPGKGLEWVSVITYDGNNKYYADSVKGRFTISRDNSKNTLFLQMSSLRPEDTAVYYCAKRGLIWVGESFDYWGQGTLVTVSS
VL: DIQMTQSPSTLSASVGDRVTITCRASQSINSWLAWYQQKPGKAPNLLIYKASSLESGVPSRFSGSGSGTEFTLTISSLQPDDFATYYCQQYKSYSWTFGQGTKVEIKR
notes: anti-IL2Rγ monoclonal antibody expressed with human IgG4 Fc

100 nM Ag Bound (RU) [1]: 76 RU
koff [1]: 0.000894 s⁻¹
t1/2 [1]: 13 min
100 nM Ag Bound (RU) [2]: 54 RU
koff [2]: 0.00296 s⁻¹
t1/2 [2]: 4 min
100 nM Ag Bound [3]: 24 RU
Kd [3]: 33.4 nM
koff [3]: 0.00348 s⁻¹
kon [3]: 104000 M⁻¹ s⁻¹
t1/2 [3]: 3.3 min
100 nM Ag Bound [4]: 34 RU
Kd [4]: 14.1 nM
koff [4]: 0.000633 s⁻¹
kon [4]: 44900 M⁻¹ s⁻¹
t1/2 [4]: 18 min
100 nM Ag Bound [5]: 42 RU
Kd [5]: 11.2 nM
koff [5]: 0.000691 s⁻¹
kon [5]: 62000 M⁻¹ s⁻¹
t1/2 [5]: 17 min
B3: H4H12913P2 (antibody, human IgG4 S228P, kappa, V domains shown)
VH: EVQLVESGGGVVRPGGSLRLSCAASGFTFDDYGMSWVRQAPGKGLEWISSINRNGGSADYADSVKGRFTISRDNAKNSLFLQMSSLRAEDTALYHCASGEFRFDYWGQGTLVTVSS
VL: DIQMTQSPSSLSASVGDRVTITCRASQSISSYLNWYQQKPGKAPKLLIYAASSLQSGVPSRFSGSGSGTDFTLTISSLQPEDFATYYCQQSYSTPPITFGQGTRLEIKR
notes: as for B2

100 nM Ag Bound (RU) [1]: 92 RU
koff [1]: 0.000541 s⁻¹
t1/2 [1]: 21 min
100 nM Ag Bound (RU) [2]: 82 RU
koff [2]: 0.00255 s⁻¹
t1/2 [2]: 5 min
100 nM Ag Bound [3]: 52 RU
Kd [3]: 10.4 nM
koff [3]: 0.00125 s⁻¹
kon [3]: 120000 M⁻¹ s⁻¹
t1/2 [3]: 9 min
100 nM Ag Bound [4]: 50 RU
Kd [4]: 4.28 nM
koff [4]: 0.000306 s⁻¹
kon [4]: 71500 M⁻¹ s⁻¹
t1/2 [4]: 38 min
100 nM Ag Bound [5]: 57 RU
Kd [5]: 3.57 nM
koff [5]: 0.000305 s⁻¹
kon [5]: 85200 M⁻¹ s⁻¹
t1/2 [5]: 38 min
B4: H4H12874P (antibody, human IgG4 S228P, kappa, V domains shown)
VH: QVQLVESGGGVVQPGRSLRLSCAASGFNFRNFGMHWVRQAPGKGLEWVAGILYDGSSKYYADSVKDRFTISRDNSKNTLFLQMNSLRAEDTAMYYCAKEEDTAMVPFDSWGPGTLVTVSS
VL: DIQLTQSPSFLSASVGDRVTITCWASQGISSYLAWYQQKPGKAPTLLIYAASTLQSGVPSRFSGSGSGTEFTLTISSLQPEDFASYYCQQLKSYPLTFGGGTKVEIKR
notes: as for B2
